{"source": "the supplement of paper PMC11246515", "experiment": "total protein half-life in vivo (active degradation + dilution); higher = more stable protein", "key": {"[1]": {"details": "E. coli NCM3722 delta-clpP delta-lon delta-hslV, growth: N-lim chemostat, doubling time 6 h"}, "[2]": {"details": "E. coli NCM3722 delta-clpP, growth: N-lim chemostat, doubling time 6 h"}, "[3]": {"details": "E. coli NCM3722 delta-hslV, growth: N-lim chemostat, doubling time 6 h"}, "[4]": {"details": "E. coli NCM3722 delta-lon, growth: N-lim chemostat, doubling time 6 h"}, "[5]": {"details": "wild type E. coli NCM3722, growth: C-lim chemostat, doubling time 3 h"}, "[6]": {"details": "wild type E. coli NCM3722, growth: C-lim chemostat, doubling time 6 h"}, "[7]": {"details": "wild type E. coli NCM3722, growth: N-lim chemostat, doubling time 6 h"}, "[8]": {"details": "E. coli NCM3722 delta-smpB, growth: N-lim chemostat, doubling time 6 h"}, "[9]": {"details": "wild type E. coli NCM3722, growth: C-lim chemostat, doubling time 12 h"}, "[10]": {"details": "wild type E. coli NCM3722, growth: N-lim chemostat, doubling time 12 h"}, "[11]": {"details": "wild type E. coli NCM3722, growth: P-lim chemostat, doubling time 6 h"}, "[12]": {"details": "wild type E. coli NCM3722, growth: P-lim chemostat, doubling time 12 h"}}, "note": "± gives the standard deviation of the averaged measurements.", "data": [{"sequence": "MGDIMRPIPFEELLTRIFDEYQQQRSIFGIPEQQFYSPVKGKTVSVFGETCATPVGPAAGPHTQLAQNIVTSWLTGGRFIELKTVQILDRLELEKPCIDAEDECFNTEWSTEFTLLKAWDEYLKAWFALHLLEAMFQPSDSGKSFIFNMSVGYNLEGIKQPPMQQFIDNMMDASDHPKFAQYRDTLNKLLQDDAFLARHGLQEKRESLQALPARIPTSMVHGVTLSTMHGCPPHEIEAICRYMLEEKGLNTFVKLNPTLLGYARVREILDVCGFGYIGLKEESFDHDLKLTQALEMLERLMALAKEKSLGFGVKLTNTLGTINNKGALPGEEMYMSGRALFPLSINVAAVLSRAFDGKLPISYSGGASQLTIRDIFDTGIRPITMATDLLKPGGYLRLSACMRELEGSDAWGLDHVDVERLNRLAADALTMEYTQKHWKPEERIEVAEDLPLTDCYVAPCVTACAIKQDIPEYIRLLGEHRYADALELIYQRNALPAITGHICDHQCQYNCTRLDYDSALNIRELKKVALEKGWDEYKQRWHKPAGSGSRHPVAVIGAGPAGLAAGYFLARAGHPVTLFEREANAGGVVKNIIPQFRIPAELIQHDIDFVAAHGVKFEYGCSPDLTIEQLKNQGFHYVLIATGTDKNSGVKLAGDNQNVWKSLPFLREYNKGTALKLGKHVVVVGAGNTAMDCARAALRVPGVEKATIVYRRSLQEMPAWREEYEEALHDGVEFRFLNNPERFDADGTLTLRVMSLGEPDEKGRRRPVETNETVTLLVDSLITAIGEQQDTEALNAMGVPLDKNGWPDVDHNGETRLTDVFMIGDVQRGPSSIVAAVGTARRATDAILSRENIRSHQNDKYWNNVNPAEIYQRKGDISITLVNSDDRDAFVAQEAARCLECNYVCSKCVDVCPNRANVSIAVPGFQNRFQTLHLDAYCNECGNCAQFCPWNGKPYKDKITVFSLAQDFDNSSNPGFLVEDCRVRVRLNNQSWVLNIDSKGQFNNVPPELNDMCRIISHVHQHHHYLLGRVEV", "values": [{"measurement": "total protein half-life in vivo", "setting": "[1]", "result": "6.26 ± 1.4", "unit": "h"}, {"measurement": "total protein half-life in vivo", "setting": "[2]", "result": 5.57, "unit": "h"}, {"measurement": "total protein half-life in vivo", "setting": "[3]", "result": 5.57, "unit": "h"}, {"measurement": "total protein half-life in vivo", "setting": "[4]", "result": 6.62, "unit": "h"}, {"measurement": "total protein half-life in vivo", "setting": "[5]", "result": "2.86 ± 0.32", "unit": "h"}, {"measurement": "total protein half-life in vivo", "setting": "[6]", "result": 6.06, "unit": "h"}, {"measurement": "total protein half-life in vivo", "setting": "[7]", "result": 6.49, "unit": "h"}]}, {"sequence": "MIKRVLVVSMVGLSLVGCVNNDTLSGDVYTASEAKQVQNVSYGTIVNVRPVQIQGGDDSNVIGAIGGAVLGGFLGNTVGGGTGRSLATAAGAVAGGVAGQGVQSAMNKTQGVELEIRKDDGNTIMVVQKQGNTRFSPGQRVVLASNGSQVTVSPR [P0A905]", "values": [{"measurement": "total protein half-life in vivo", "setting": "[1]", "result": "5.26 ± 0.26", "unit": "h"}, {"measurement": "total protein half-life in vivo", "setting": "[2]", "result": "5.83 ± 0.096", "unit": "h"}, {"measurement": "total protein half-life in vivo", "setting": "[3]", "result": "6.11 ± 0.62", "unit": "h"}, {"measurement": "total protein half-life in vivo", "setting": "[4]", "result": "6.23 ± 0.85", "unit": "h"}, {"measurement": "total protein half-life in vivo", "setting": "[8]", "result": "6.1 ± 0.32", "unit": "h"}, {"measurement": "total protein half-life in vivo", "setting": "[5]", "result": "2.899 ± 0.023", "unit": "h"}, {"measurement": "total protein half-life in vivo", "setting": "[6]", "result": "5.41 ± 0.79", "unit": "h"}, {"measurement": "total protein half-life in vivo", "setting": "[9]", "result": "9.39 ± 0.33", "unit": "h"}, {"measurement": "total protein half-life in vivo", "setting": "[7]", "result": "5.49 ± 0.094", "unit": "h"}, {"measurement": "total protein half-life in vivo", "setting": "[10]", "result": "11.5 ± 0.94", "unit": "h"}, {"measurement": "total protein half-life in vivo", "setting": "[11]", "result": "5.87 ± 0.41", "unit": "h"}, {"measurement": "total protein half-life in vivo", "setting": "[12]", "result": "11.5 ± 0.73", "unit": "h"}]}, {"sequence": "MEQSVANLVDMRDVSFTRGNRCIFDNISLTVPRGKITAIMGPSGIGKTTLLRLIGGQIAPDHGEILFDGENIPAMSRSRLYTVRKRMSMLFQSGALFTDMNVFDNVAYPLREHTQLPAPLLHSTVMMKLEAVGLRGAAKLMPSELSGGMARRAALARAIALEPDLIMFDEPFVGQDPITMGVLVKLISELNSALGVTCVVVSHDVPEVLSIADHAWILADKKIVAHGSAQALQANPDPRVRQFLDGIADGPVPFRYPAGDYHADLLPGS", "values": [{"measurement": "total protein half-life in vivo", "setting": "[1]", "result": "6.3 ± 0.54", "unit": "h"}, {"measurement": "total protein half-life in vivo", "setting": "[2]", "result": "6.19 ± 0.062", "unit": "h"}, {"measurement": "total protein half-life in vivo", "setting": "[8]", "result": "5.79 ± 0.68", "unit": "h"}, {"measurement": "total protein half-life in vivo", "setting": "[5]", "result": "3.08 ± 0.07", "unit": "h"}, {"measurement": "total protein half-life in vivo", "setting": "[6]", "result": "7.05 ± 1.1", "unit": "h"}, {"measurement": "total protein half-life in vivo", "setting": "[9]", "result": "12.3 ± 2", "unit": "h"}, {"measurement": "total protein half-life in vivo", "setting": "[7]", "result": "6.18 ± 0.23", "unit": "h"}, {"measurement": "total protein half-life in vivo", "setting": "[10]", "result": "> 16", "unit": "h"}, {"measurement": "total protein half-life in vivo", "setting": "[11]", "result": "7.04 ± 0.68", "unit": "h"}, {"measurement": "total protein half-life in vivo", "setting": "[12]", "result": "14.1 ± 0.78", "unit": "h"}]}, {"sequence": "MAQFVYTMHRVGKVVPPKRHILKNISLSFFPGAKIGVLGLNGAGKSTLLRIMAGIDKDIEGEARPQPDIKIGYLPQEPQLNPEHTVRESIEEAVSEVVNALKRLDEVYALYADPDADFDKLAAEQGRLEEIIQAHDGHNLNVQLERAADALRLPDWDAKIANLSGGERRRVALCRLLLEKPDMLLLDEPTNHLDAESVAWLERFLHDFEGTVVAITHDRYFLDNVAGWILELDRGEGIPWEGNYSSWLEQKDQRLAQEASQEAARRKSIEKELEWVRQGTKGRQSKGKARLARFEELNSTEYQKRNETNELFIPPGPRLGDKVLEVSNLRKSYGDRLLIDDLSFSIPKGAIVGIIGPNGAGKSTLFRMISGQEQPDSGTITLGETVKLASVDQFRDSMDNSKTVWEEVSGGLDIMKIGNTEMPSRAYVGRFNFKGVDQGKRVGELSGGERGRLHLAKLLQVGGNMLLLDEPTNDLDIETLRALENALLEFPGCAMVISHDRWFLDRIATHILDYQDEGKVEFFEGNFTEYEEYKKRTLGADALEPKRIKYKRIAK [P0A9W3]", "values": [{"measurement": "total protein half-life in vivo", "setting": "[1]", "result": "4.99 ± 0.079", "unit": "h"}, {"measurement": "total protein half-life in vivo", "setting": "[2]", "result": "5.16 ± 1.3", "unit": "h"}, {"measurement": "total protein half-life in vivo", "setting": "[3]", "result": "4.696 ± 0.0076", "unit": "h"}, {"measurement": "total protein half-life in vivo", "setting": "[4]", "result": "4.99 ± 0.28", "unit": "h"}, {"measurement": "total protein half-life in vivo", "setting": "[8]", "result": "4.57 ± 0.13", "unit": "h"}, {"measurement": "total protein half-life in vivo", "setting": "[5]", "result": "3.142 ± 0.022", "unit": "h"}, {"measurement": "total protein half-life in vivo", "setting": "[6]", "result": "5.61 ± 0.25", "unit": "h"}, {"measurement": "total protein half-life in vivo", "setting": "[9]", "result": "10.3 ± 0.59", "unit": "h"}, {"measurement": "total protein half-life in vivo", "setting": "[7]", "result": "4.514 ± 0.025", "unit": "h"}, {"measurement": "total protein half-life in vivo", "setting": "[10]", "result": "7.31 ± 0.33", "unit": "h"}, {"measurement": "total protein half-life in vivo", "setting": "[11]", "result": "5.748 ± 0.023", "unit": "h"}, {"measurement": "total protein half-life in vivo", "setting": "[12]", "result": "11.6 ± 0.28", "unit": "h"}]}, {"sequence": "MKALSPIAVLISALLLQGCVAAAVVGTAAVGTKAATDPRSVGTQVDDGTLEVRVNSALSKDEQIKKEARINVTAYQGKVLLVGQSPNAELSARAKQIAMGVDGANEVYNEIRQGQPIGLGEASNDTWITTKVRSQLLTSDLVKSSNVKVTTENGEVFLMGLVTEREAKAAADIASRVSGVKRVTTAFTFIK", "values": [{"measurement": "total protein half-life in vivo", "setting": "[1]", "result": "5.42 ± 0.59", "unit": "h"}, {"measurement": "total protein half-life in vivo", "setting": "[3]", "result": "6.43 ± 0.3", "unit": "h"}, {"measurement": "total protein half-life in vivo", "setting": "[4]", "result": "6.34 ± 0.34", "unit": "h"}, {"measurement": "total protein half-life in vivo", "setting": "[8]", "result": "5.71 ± 0.1", "unit": "h"}, {"measurement": "total protein half-life in vivo", "setting": "[5]", "result": "3.05 ± 0.21", "unit": "h"}, {"measurement": "total protein half-life in vivo", "setting": "[6]", "result": "5.72 ± 0.47", "unit": "h"}, {"measurement": "total protein half-life in vivo", "setting": "[9]", "result": "10.5 ± 1.7", "unit": "h"}, {"measurement": "total protein half-life in vivo", "setting": "[7]", "result": "5.86 ± 0.3", "unit": "h"}, {"measurement": "total protein half-life in vivo", "setting": "[10]", "result": "11.9 ± 0.14", "unit": "h"}, {"measurement": "total protein half-life in vivo", "setting": "[11]", "result": "5.78 ± 0.22", "unit": "h"}, {"measurement": "total protein half-life in vivo", "setting": "[12]", "result": "12.3 ± 0.21", "unit": "h"}]}]}
